Drawing on publication PMC12445016 (Nature, 2025), this text covers percent more pulled down than by pACKR3 (GRK2), IC50 and EC50 for three molecules.

In experiment [1] the target is GRK5-phosphorylated ACKR3·CXCL12_(LRHQ) (UniProt P25106). Nature of the experiment: pull-down.
Experiment [2] deals with T1, preactivated arrestin3 (truncated after residue 392) (bovine, UniProt P32120).
T1 chain: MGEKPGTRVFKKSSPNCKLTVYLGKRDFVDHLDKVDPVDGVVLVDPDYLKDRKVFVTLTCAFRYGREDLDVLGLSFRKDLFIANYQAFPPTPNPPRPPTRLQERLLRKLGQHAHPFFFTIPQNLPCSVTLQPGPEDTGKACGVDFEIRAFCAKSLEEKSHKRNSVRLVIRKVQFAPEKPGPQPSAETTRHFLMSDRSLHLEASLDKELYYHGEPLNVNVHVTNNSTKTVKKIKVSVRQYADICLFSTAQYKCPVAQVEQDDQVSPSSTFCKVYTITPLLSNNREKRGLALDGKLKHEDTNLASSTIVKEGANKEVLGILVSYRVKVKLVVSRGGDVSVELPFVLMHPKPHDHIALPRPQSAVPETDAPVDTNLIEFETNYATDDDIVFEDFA
The experiment can be described thus: ELISA.

For experiment [3], the target named is T2, biotinylated Arr3* loaded with inositol hexakisphosphate (IP6) (bovine, UniProt P32120, biotin (EZ-link sulfo-NHS-Biotin; sites not stated)).
T2 chain: T1 chain
The experiment can be described thus: ELISA.

Regarding “preactivated arrestin2 (I386A, V387A, F388A mutations in its C-tail) (from UniProt P17870 1-418) (natural protein)”, in experiment [1], the percent more pulled down than by pACKR3 (GRK2) was 30%. The same measure, in the same setting: then “preactivated arrestin3 (truncated after residue 392) (from UniProt P32120 1-392) (domain or fragment)”, with 40%.

B1: Fab7 (antigen binding fragment that recognizes active arrestin2 and arrestin3) (Fab, V domains shown)
VH: EVQLVESGGGLVQPGGSLRLSCAASGFNVSSSYIHWVRQAPGKGLEWVASISSYYGYTYYADSVKGRFTISADTSKNTAYLQMNSLRAEDTAVYYCARKSMYHRGWGWLSWVYGAMDYWGQGTLVTVSS
VL: DIQMTQSPSSLSASVGDRVTITCRASQSVSSAVAWYQQKPGKAPKLLIYSASSLYSGVPSRFSGSRSGTDFTLTISSLQPEDFATYYCQQSYYYPITFGQGTKVEIK
The term IC50 denotes the point on the concentration scale where inhibition reaches its midpoint. A high value points to weaker potency in that assay. One may read the EC50 as the concentration needed to bring the measured effect to its halfway point. A lower EC50 goes with higher potency in that assay. The molecule B1 had an IC50 in experiment [2] of about 0.09 µM. In addition, the EC50 in experiment [3] is about 0.01 µM.
